Assay results reported in publication doi:10.1101/2020.05.13.094045.

Legend:
[1] = molecular target: AP_SAP11-like_PM19-GFP ('Candidatus Phytoplasma mali' strain PM19); assay: FRET or BRET
[2] = molecular target: AP_SAP11-like_PM19^Δ40-56-GFP ('Candidatus Phytoplasma mali' strain PM19); assay: FRET or BRET

| Binder | FRET efficiency [1] | FRET efficiency [2] |
| --- | --- | --- |
| AtTCP13-RFP (natural protein) MNIVSWKDANDEVAGGATTRREREVKEDQEETEVRATSGKTVIKKQPTSISSSSSSWMKSKDPRIVRVSRAFGGKDRHSKVCTLRGLRDRRVRLSVPTAIQLYDLQERLGVDQPSKAVDWLLDAAKEEIDELPPLPISPENFSIFNHHQSFLNLGQRPGQDPTQLGFKINGCVQKSTTTSREENDREKGENDVVYTNNHHVGSYGTYHNLEHHHHHHQHLSLQADYHSHQLHSLVPFPSQILVCPMTTSPTTTTIQSLFPSSSSAGSGTMETLDPRQMVSHFQMPLMGNSSSSSSQNISTLYSLLHGSSSNNGGRDIDNRMSSVQFNRTNSTTTANMSRHLGSERCTSRGSDHHM | 9% | 8% |
| AtTCP4-RFP (natural protein) MSDDQFHHPPPPSSMRHRSTSDAADGGCGEIVEVQGGHIVRSTGRKDRHSKVCTAKGPRDRRVRLSAHTAIQFYDVQDRLGFDRPSKAVDWLIKKAKTSIDELAELPPWNPADAIRLAAANAKPRRTTAKTQISPSPPPPQQQQQQQQLQFGVGFNGGGAEHPSNNESSFLPPSMDSDSIADTIKSFFPVIGSSTEAPSNHNLMHNYHHQHPPDLLSRTNSQNQDLRLSLQSFPDGPPSLLHHQHHHHTSASASEPTLFYGQSNPLGFDTSSWEQQSSEFGRIQRLVAWNSGGGGGATDTGNGGGFLFAPPTPSTTSFQPVLGQSQQLYSQRGPLQSSYSPMIRAWFDPHHHHQSISTDDLNHHHHLPPPVHQSAIPGIGFASGEFSSGFRIPARFQGQEEEQHDGLTHKPSSASSISRH | 11% | – |
